# Data published in US20210388087A1 (Chugai, published 2021).
# T1: Human CD3eg linker (human)
# T1 construct: Single chain: epsilon and gamma subunits of human CD3 joined by a 29-mer linker, Flag-tag at the C-terminus; also called recombinant human CD3
# T1 chain: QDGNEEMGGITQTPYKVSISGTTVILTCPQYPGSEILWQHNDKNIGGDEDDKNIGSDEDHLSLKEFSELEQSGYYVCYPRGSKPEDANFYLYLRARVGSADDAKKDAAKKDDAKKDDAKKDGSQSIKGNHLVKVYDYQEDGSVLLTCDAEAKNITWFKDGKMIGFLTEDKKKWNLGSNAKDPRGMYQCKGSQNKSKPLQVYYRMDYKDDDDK
# Molecular target: T1, Human CD3eg linker
# Experiment: Biacore SPR, vs template H183/L072
row,Binder,fold change of affinity
1,"H183/L072 VH D52aE (antibody, name in Kabat numbering, V domains shown) VH: QVQLVESGGGLVQPGRSLRLSCAASGFTFSNAWMHWVRQAPGKGLEWVAQIKEKGNAYAAYYAPSVKGRFTISRDDSKNSIYLQMNSLKTEDTAVYYCHYVHYASASTVLPAFGVDAWGQGTTVTVSS VL: DIVMTQSPLSLPVTPGEPASISCQASQELVHMNRNTYLHWYQQKPGQAPRLLIYKVSNRFPGVPDRFSGSGSGTDFTLKISRVEAEDVGVYYCAQGTSVPFTFGQGTKLEIK",0 fold
2,"H183/L072 VH D52aR (antibody, name in Kabat numbering, V domains shown) VH: QVQLVESGGGLVQPGRSLRLSCAASGFTFSNAWMHWVRQAPGKGLEWVAQIKRKGNAYAAYYAPSVKGRFTISRDDSKNSIYLQMNSLKTEDTAVYYCHYVHYASASTVLPAFGVDAWGQGTTVTVSS VL: DIVMTQSPLSLPVTPGEPASISCQASQELVHMNRNTYLHWYQQKPGQAPRLLIYKVSNRFPGVPDRFSGSGSGTDFTLKISRVEAEDVGVYYCAQGTSVPFTFGQGTKLEIK",0 fold
3,"H183/L072 VH D52aW (antibody, name in Kabat numbering, V domains shown) VH: QVQLVESGGGLVQPGRSLRLSCAASGFTFSNAWMHWVRQAPGKGLEWVAQIKWKGNAYAAYYAPSVKGRFTISRDDSKNSIYLQMNSLKTEDTAVYYCHYVHYASASTVLPAFGVDAWGQGTTVTVSS VL: DIVMTQSPLSLPVTPGEPASISCQASQELVHMNRNTYLHWYQQKPGQAPRLLIYKVSNRFPGVPDRFSGSGSGTDFTLKISRVEAEDVGVYYCAQGTSVPFTFGQGTKLEIK",0 fold
4,"H183/L072 VH D52aP (antibody, name in Kabat numbering, V domains shown) VH: QVQLVESGGGLVQPGRSLRLSCAASGFTFSNAWMHWVRQAPGKGLEWVAQIKPKGNAYAAYYAPSVKGRFTISRDDSKNSIYLQMNSLKTEDTAVYYCHYVHYASASTVLPAFGVDAWGQGTTVTVSS VL: DIVMTQSPLSLPVTPGEPASISCQASQELVHMNRNTYLHWYQQKPGQAPRLLIYKVSNRFPGVPDRFSGSGSGTDFTLKISRVEAEDVGVYYCAQGTSVPFTFGQGTKLEIK",0 fold
5,"H183/L072 VH D52aF (antibody, name in Kabat numbering, V domains shown) VH: QVQLVESGGGLVQPGRSLRLSCAASGFTFSNAWMHWVRQAPGKGLEWVAQIKFKGNAYAAYYAPSVKGRFTISRDDSKNSIYLQMNSLKTEDTAVYYCHYVHYASASTVLPAFGVDAWGQGTTVTVSS VL: DIVMTQSPLSLPVTPGEPASISCQASQELVHMNRNTYLHWYQQKPGQAPRLLIYKVSNRFPGVPDRFSGSGSGTDFTLKISRVEAEDVGVYYCAQGTSVPFTFGQGTKLEIK",0 fold
6,"H183/L072 VH D52aS (antibody, name in Kabat numbering, V domains shown) VH: QVQLVESGGGLVQPGRSLRLSCAASGFTFSNAWMHWVRQAPGKGLEWVAQIKSKGNAYAAYYAPSVKGRFTISRDDSKNSIYLQMNSLKTEDTAVYYCHYVHYASASTVLPAFGVDAWGQGTTVTVSS VL: DIVMTQSPLSLPVTPGEPASISCQASQELVHMNRNTYLHWYQQKPGQAPRLLIYKVSNRFPGVPDRFSGSGSGTDFTLKISRVEAEDVGVYYCAQGTSVPFTFGQGTKLEIK",0 fold
7,"H183/L072 VH D101L (antibody, name in Kabat numbering, V domains shown) VH: QVQLVESGGGLVQPGRSLRLSCAASGFTFSNAWMHWVRQAPGKGLEWVAQIKDKGNAYAAYYAPSVKGRFTISRDDSKNSIYLQMNSLKTEDTAVYYCHYVHYASASTVLPAFGVLAWGQGTTVTVSS VL: DIVMTQSPLSLPVTPGEPASISCQASQELVHMNRNTYLHWYQQKPGQAPRLLIYKVSNRFPGVPDRFSGSGSGTDFTLKISRVEAEDVGVYYCAQGTSVPFTFGQGTKLEIK",2.3 fold
8,"H183/L072 VH D52aY (antibody, name in Kabat numbering, V domains shown) VH: QVQLVESGGGLVQPGRSLRLSCAASGFTFSNAWMHWVRQAPGKGLEWVAQIKYKGNAYAAYYAPSVKGRFTISRDDSKNSIYLQMNSLKTEDTAVYYCHYVHYASASTVLPAFGVDAWGQGTTVTVSS VL: DIVMTQSPLSLPVTPGEPASISCQASQELVHMNRNTYLHWYQQKPGQAPRLLIYKVSNRFPGVPDRFSGSGSGTDFTLKISRVEAEDVGVYYCAQGTSVPFTFGQGTKLEIK",0 fold
9,"H183/L072 VH D52aH (antibody, name in Kabat numbering, V domains shown) VH: QVQLVESGGGLVQPGRSLRLSCAASGFTFSNAWMHWVRQAPGKGLEWVAQIKHKGNAYAAYYAPSVKGRFTISRDDSKNSIYLQMNSLKTEDTAVYYCHYVHYASASTVLPAFGVDAWGQGTTVTVSS VL: DIVMTQSPLSLPVTPGEPASISCQASQELVHMNRNTYLHWYQQKPGQAPRLLIYKVSNRFPGVPDRFSGSGSGTDFTLKISRVEAEDVGVYYCAQGTSVPFTFGQGTKLEIK",0.3 fold
10,"H183/L072 VH D52aN (antibody, name in Kabat numbering, V domains shown) VH: QVQLVESGGGLVQPGRSLRLSCAASGFTFSNAWMHWVRQAPGKGLEWVAQIKNKGNAYAAYYAPSVKGRFTISRDDSKNSIYLQMNSLKTEDTAVYYCHYVHYASASTVLPAFGVDAWGQGTTVTVSS VL: DIVMTQSPLSLPVTPGEPASISCQASQELVHMNRNTYLHWYQQKPGQAPRLLIYKVSNRFPGVPDRFSGSGSGTDFTLKISRVEAEDVGVYYCAQGTSVPFTFGQGTKLEIK",0.1 fold
11,"H183/L072 VH D52aV (antibody, name in Kabat numbering, V domains shown) VH: QVQLVESGGGLVQPGRSLRLSCAASGFTFSNAWMHWVRQAPGKGLEWVAQIKVKGNAYAAYYAPSVKGRFTISRDDSKNSIYLQMNSLKTEDTAVYYCHYVHYASASTVLPAFGVDAWGQGTTVTVSS VL: DIVMTQSPLSLPVTPGEPASISCQASQELVHMNRNTYLHWYQQKPGQAPRLLIYKVSNRFPGVPDRFSGSGSGTDFTLKISRVEAEDVGVYYCAQGTSVPFTFGQGTKLEIK",0 fold
12,"H183/L072 VH D52aG (antibody, name in Kabat numbering, V domains shown) VH: QVQLVESGGGLVQPGRSLRLSCAASGFTFSNAWMHWVRQAPGKGLEWVAQIKGKGNAYAAYYAPSVKGRFTISRDDSKNSIYLQMNSLKTEDTAVYYCHYVHYASASTVLPAFGVDAWGQGTTVTVSS VL: DIVMTQSPLSLPVTPGEPASISCQASQELVHMNRNTYLHWYQQKPGQAPRLLIYKVSNRFPGVPDRFSGSGSGTDFTLKISRVEAEDVGVYYCAQGTSVPFTFGQGTKLEIK",0.2 fold
13,"H183/L072 VH D52aI (antibody, name in Kabat numbering, V domains shown) VH: QVQLVESGGGLVQPGRSLRLSCAASGFTFSNAWMHWVRQAPGKGLEWVAQIKIKGNAYAAYYAPSVKGRFTISRDDSKNSIYLQMNSLKTEDTAVYYCHYVHYASASTVLPAFGVDAWGQGTTVTVSS VL: DIVMTQSPLSLPVTPGEPASISCQASQELVHMNRNTYLHWYQQKPGQAPRLLIYKVSNRFPGVPDRFSGSGSGTDFTLKISRVEAEDVGVYYCAQGTSVPFTFGQGTKLEIK",0 fold
14,"H183/L072 VH D52aT (antibody, name in Kabat numbering, V domains shown) VH: QVQLVESGGGLVQPGRSLRLSCAASGFTFSNAWMHWVRQAPGKGLEWVAQIKTKGNAYAAYYAPSVKGRFTISRDDSKNSIYLQMNSLKTEDTAVYYCHYVHYASASTVLPAFGVDAWGQGTTVTVSS VL: DIVMTQSPLSLPVTPGEPASISCQASQELVHMNRNTYLHWYQQKPGQAPRLLIYKVSNRFPGVPDRFSGSGSGTDFTLKISRVEAEDVGVYYCAQGTSVPFTFGQGTKLEIK",0 fold
15,"H183/L072 VH D52aQ (antibody, name in Kabat numbering, V domains shown) VH: QVQLVESGGGLVQPGRSLRLSCAASGFTFSNAWMHWVRQAPGKGLEWVAQIKQKGNAYAAYYAPSVKGRFTISRDDSKNSIYLQMNSLKTEDTAVYYCHYVHYASASTVLPAFGVDAWGQGTTVTVSS VL: DIVMTQSPLSLPVTPGEPASISCQASQELVHMNRNTYLHWYQQKPGQAPRLLIYKVSNRFPGVPDRFSGSGSGTDFTLKISRVEAEDVGVYYCAQGTSVPFTFGQGTKLEIK",0 fold
16,"H183/L072 VH D52aM (antibody, name in Kabat numbering, V domains shown) VH: QVQLVESGGGLVQPGRSLRLSCAASGFTFSNAWMHWVRQAPGKGLEWVAQIKMKGNAYAAYYAPSVKGRFTISRDDSKNSIYLQMNSLKTEDTAVYYCHYVHYASASTVLPAFGVDAWGQGTTVTVSS VL: DIVMTQSPLSLPVTPGEPASISCQASQELVHMNRNTYLHWYQQKPGQAPRLLIYKVSNRFPGVPDRFSGSGSGTDFTLKISRVEAEDVGVYYCAQGTSVPFTFGQGTKLEIK",0 fold
17,"H183/L072 VH D101I (antibody, name in Kabat numbering, V domains shown) VH: QVQLVESGGGLVQPGRSLRLSCAASGFTFSNAWMHWVRQAPGKGLEWVAQIKDKGNAYAAYYAPSVKGRFTISRDDSKNSIYLQMNSLKTEDTAVYYCHYVHYASASTVLPAFGVIAWGQGTTVTVSS VL: DIVMTQSPLSLPVTPGEPASISCQASQELVHMNRNTYLHWYQQKPGQAPRLLIYKVSNRFPGVPDRFSGSGSGTDFTLKISRVEAEDVGVYYCAQGTSVPFTFGQGTKLEIK",0.6 fold
18,"H183/L072 VH D101A (antibody, name in Kabat numbering, V domains shown) VH: QVQLVESGGGLVQPGRSLRLSCAASGFTFSNAWMHWVRQAPGKGLEWVAQIKDKGNAYAAYYAPSVKGRFTISRDDSKNSIYLQMNSLKTEDTAVYYCHYVHYASASTVLPAFGVAAWGQGTTVTVSS VL: DIVMTQSPLSLPVTPGEPASISCQASQELVHMNRNTYLHWYQQKPGQAPRLLIYKVSNRFPGVPDRFSGSGSGTDFTLKISRVEAEDVGVYYCAQGTSVPFTFGQGTKLEIK",0.8 fold
19,"H183/L072 VH D52aL (antibody, name in Kabat numbering, V domains shown) VH: QVQLVESGGGLVQPGRSLRLSCAASGFTFSNAWMHWVRQAPGKGLEWVAQIKLKGNAYAAYYAPSVKGRFTISRDDSKNSIYLQMNSLKTEDTAVYYCHYVHYASASTVLPAFGVDAWGQGTTVTVSS VL: DIVMTQSPLSLPVTPGEPASISCQASQELVHMNRNTYLHWYQQKPGQAPRLLIYKVSNRFPGVPDRFSGSGSGTDFTLKISRVEAEDVGVYYCAQGTSVPFTFGQGTKLEIK",0 fold
20,"H183/L072 VH D52aK (antibody, name in Kabat numbering, V domains shown) VH: QVQLVESGGGLVQPGRSLRLSCAASGFTFSNAWMHWVRQAPGKGLEWVAQIKKKGNAYAAYYAPSVKGRFTISRDDSKNSIYLQMNSLKTEDTAVYYCHYVHYASASTVLPAFGVDAWGQGTTVTVSS VL: DIVMTQSPLSLPVTPGEPASISCQASQELVHMNRNTYLHWYQQKPGQAPRLLIYKVSNRFPGVPDRFSGSGSGTDFTLKISRVEAEDVGVYYCAQGTSVPFTFGQGTKLEIK",0 fold
